Assay results from patent publication US20100203150A1, “Novel amphiphilic copolymers and fabrication method thereof” (priority 2009, published 2010).

Experiment: Solubility in common solvents and co-solvents
Conditions: some common organic solvents and co-solvents

## 5′-deoxy-5-fluorouridine-poly(ε-caprolactone) [5′-DFUR-PCL]
  solubility: soluble
